Laboratory results as given in patent US20240361334A1.
One block for each substance: values may come before it.

Legend:
[1] = molecular target: Human myeloma IgG1 purified from human plasma (Sigma-Aldrich #I5154); assay: HTRF saturation binding, biotin-anti-Fab/SA-d2 on Eu cryptate-IgG
[2] = molecular target: Human myeloma IgG2 purified from human plasma (Sigma-Aldrich #I5404); assay: as above
[3] = molecular target: Human myeloma IgG4 purified from human plasma (Sigma-Aldrich #I4764); assay: as above
[4] = molecular target: Human myeloma IgG1 purified from human plasma (Sigma-Aldrich #I5154); assay: HTRF saturation binding, anti-Fab-d2 on Eu cryptate-IgG
[5] = molecular target: Human myeloma IgG4 purified from human plasma (Sigma-Aldrich #I4764); assay: as above
[6] = molecular target: human C1q protein (Sigma-Aldrich #C1740) (human) (UniProt P02745); assay: HTRF sandwich, biotin-anti-human Fab 1/SA-d2, Eu-anti-C1q, 135 mM NaCl
[7] = molecular target: human C1q protein (Sigma-Aldrich #C1740) (human) (UniProt P02745); assay: HTRF sandwich, biotin-anti-human Fab 1/SA-d2, Eu-anti-C1q, 155 mM NaCl
[8] = molecular target: human C1q protein (Sigma-Aldrich #C1740) (human) (UniProt P02745); assay: HTRF sandwich, biotin-anti-human Fab 1/SA-d2, Eu-anti-C1q, buffer 1
[9] = molecular target: human C1q protein (Sigma-Aldrich #C1740) (human) (UniProt P02745); assay: HTRF sandwich, biotin-Protein L/SA-d2, Eu-anti-C1q
[10] = molecular target: human C1q protein (Sigma-Aldrich #C1740) (human) (UniProt P02745); assay: HTRF sandwich, biotin-anti-human Fab 1/SA-d2, Eu-anti-C1q, buffer 2
[11] = molecular target: human C1q protein (Sigma-Aldrich #C1740) (human) (UniProt P02745); assay: HTRF sandwich, biotin-anti-human Fab 2/SA-d2, Eu-anti-C1q
[12] = molecular target: human C1q protein (Sigma-Aldrich #C1740) (human) (UniProt P02745); assay: HTRF sandwich, biotin-anti-human Fab 1/SA-d2, Tb cryptate-C1q
[13] = molecular target: human C1q protein (Sigma-Aldrich #C1740) (human) (UniProt P02745); assay: AlphaLISA sandwich, biotin-anti-human Fab 1/streptavidin donor beads, anti-C1q acceptor beads
[14] = molecular target: human C1q protein (Sigma-Aldrich #C1740) (human) (UniProt P02745); assay: HTRF sandwich, anti-human Fab 2-d2 without streptavidin, Eu-anti-C1q
[15] = molecular target: human C1q protein (Sigma-Aldrich #C1740) (human) (UniProt P02745); assay: HTRF sandwich, 30 nM biotin-anti-human Fab 1/SA-d2, Eu-anti-C1q, buffer 2
[16] = molecular target: human C1q protein (Sigma-Aldrich #C1740) (human) (UniProt P02745); assay: HTRF sandwich, 50 nM biotin-anti-human Fab 1/SA-d2, Eu-anti-C1q, buffer 2
[17] = molecular target: human C1q protein (Sigma-Aldrich #C1740) (human) (UniProt P02745); assay: HTRF sandwich, biotin-anti-human Fab 1/SA-d2, Eu-anti-C1q, buffer 2, with 150 nM human TNF-α
[18] = molecular target: human C1q protein (Sigma-Aldrich #C1740) (human) (UniProt P02745); assay: HTRF sandwich, 40 nM biotin-anti-human Fab 1/SA-d2, Eu-anti-C1q, buffer 2

Sequence of Adalimumab (+150 nM TNF-α) (P01375 77-233): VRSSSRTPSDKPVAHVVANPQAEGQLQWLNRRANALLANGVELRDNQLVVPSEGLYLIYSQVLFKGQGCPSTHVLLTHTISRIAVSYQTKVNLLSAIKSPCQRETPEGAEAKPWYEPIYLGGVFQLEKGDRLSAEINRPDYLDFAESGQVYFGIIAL

Substance: Anti-human Fab 2: anti-human IgG Fab, mouse IgG2b, monoclonal antibody, clone 2A11 (GeneTex #GTX27497)
Kd [1]: 0.26 nM
Kd [2]: 0.47 nM
Kd [3]: 0.4 nM
Kd [4]: 0.2 nM
Kd [5]: 0.45 nM

Substance: Anti-human Fab 1: anti-human IgG Fab, mouse IgG2b, monoclonal antibody, clone 4A11 (ThermoFisher Scientific #SA1-19255)
Kd [1]: 0.2 nM
Kd [2]: 0.37 nM
Kd [3]: 0.33 nM
Kd [4]: 0.16 nM
Kd [5]: 0.44 nM

Substance: Adalimumab (antibody)
EC50 [9]: 69.8 nM
EC50 [10]: 7.2 nM
EC50 [11]: 8 nM

Substance: Rituximab IgG2 isotype (InvivoGen #hcd20-mab2) (from UniProt P01859 1-326) (antibody)
EC50 [6]: 38.3 nM
EC50 [7]: 37.6 nM
EC50 [8]: 38.7 nM

Substance: Ipilimumab IgG2 isotype (InvivoGen #hctla4-mab2) (from UniProt P01859 1-326) (antibody)
EC50 [8]: 53.3 nM

Substance: Non-glycosylated Rituximab (InvivoGen #hcd20-mab12) (antibody)
EC50 [8]: 25 nM

Substance: Adalimumab (+150 nM TNF-α) (from UniProt P01375 77-233)
EC50 [17]: 4.6 nM
S/B [17]: 6.9

Substance: Human IgG2 Isotype Control Recombinant Antibody (BioLegend #403602)
EC50 [15]: 19.2 nM
EC50 [12]: 73.6 nM
EC50 [18]: 25.7 nM
EC50 [8]: 34 nM
EC50 [16]: 30.6 nM

Substance: Cetuximab IgG2 isotype (InvivoGen #hegfr-mab2) (from UniProt P01859 1-326) (antibody)
EC50 [8]: 48 nM

Further lines, results first:

EC50 [6]: 18.6 nM
EC50 [7]: 19.7 nM
S/B [7]: 1.6
EC50 [8]: 18.6 nM
Substance: Obinutuzumab (antibody)

EC50 [8]: 13.2 nM
Substance: Ipilimumab (antibody)

EC50 [6]: 15.5 nM
EC50 [12]: 14.4 nM
EC50 [13]: 26.8 nM
EC50 [11]: 11.7 nM
EC50 [7]: 28.9 nM
EC50 [8]: 15.5 nM
EC50 [14]: 24 nM
Substance: Rituximab (antibody)

EC50 [8]: 16.9 nM
Substance: Cetuximab (antibody)

EC50 [12]: 13.7 nM
EC50 [13]: 23.7 nM
S/B [13]: 752
EC50 [8]: 17.3 nM
Substance: Human IgG1 Isotype Control Recombinant Antibody (BioLegend #403502)

EC50 [8]: 10.2 nM
S/B [8]: 1.4
Substance: Non-glycosylated Cetuximab (InvivoGen #hegfr-mab12) (antibody)

EC50 [15]: 7.2 nM
EC50 [8]: 13.2 nM
EC50 [16]: 10.9 nM
Substance: Atezolizumab (antibody)

EC50 [8]: 16.2 nM
Substance: Non-fucosylated Rituximab (InvivoGen #hcd20-mab13) (from UniProt P01857 1-330) (antibody)
